Holding throughout (assay): Kinase Profiling Assay
Type in all cases: biochemical
Conditions in all cases: 100 μM peptide

In one experiment the target is PASK(h) (Homo sapiens, UniProt Q96RG2). An outline of the steps: (§1)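 Peptides designed to inhibit MK2 were checked against a broad human kinase panel (266 enzymes), with duplicate measurement of every activity.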
The target in the next experiment is T1, CaMKIV(h) (Homo sapiens, UniProt Q16566).
T1 sequence (Q16566 1-473): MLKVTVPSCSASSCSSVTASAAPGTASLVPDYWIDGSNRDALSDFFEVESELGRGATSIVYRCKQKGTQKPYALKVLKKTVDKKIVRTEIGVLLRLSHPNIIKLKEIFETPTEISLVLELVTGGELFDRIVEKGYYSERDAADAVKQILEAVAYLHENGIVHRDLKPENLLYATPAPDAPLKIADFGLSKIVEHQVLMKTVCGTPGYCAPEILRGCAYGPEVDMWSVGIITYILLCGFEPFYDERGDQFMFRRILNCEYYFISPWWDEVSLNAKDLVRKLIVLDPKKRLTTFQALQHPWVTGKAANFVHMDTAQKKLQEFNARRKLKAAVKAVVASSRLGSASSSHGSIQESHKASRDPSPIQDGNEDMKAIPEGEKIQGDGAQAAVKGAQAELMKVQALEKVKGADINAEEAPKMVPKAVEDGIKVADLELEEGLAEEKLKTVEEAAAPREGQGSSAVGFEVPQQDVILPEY
In outline: as §1

A further experiment addresses T2, EphA1(h) (Homo sapiens, UniProt P21709).
T2 sequence (P21709 26-976): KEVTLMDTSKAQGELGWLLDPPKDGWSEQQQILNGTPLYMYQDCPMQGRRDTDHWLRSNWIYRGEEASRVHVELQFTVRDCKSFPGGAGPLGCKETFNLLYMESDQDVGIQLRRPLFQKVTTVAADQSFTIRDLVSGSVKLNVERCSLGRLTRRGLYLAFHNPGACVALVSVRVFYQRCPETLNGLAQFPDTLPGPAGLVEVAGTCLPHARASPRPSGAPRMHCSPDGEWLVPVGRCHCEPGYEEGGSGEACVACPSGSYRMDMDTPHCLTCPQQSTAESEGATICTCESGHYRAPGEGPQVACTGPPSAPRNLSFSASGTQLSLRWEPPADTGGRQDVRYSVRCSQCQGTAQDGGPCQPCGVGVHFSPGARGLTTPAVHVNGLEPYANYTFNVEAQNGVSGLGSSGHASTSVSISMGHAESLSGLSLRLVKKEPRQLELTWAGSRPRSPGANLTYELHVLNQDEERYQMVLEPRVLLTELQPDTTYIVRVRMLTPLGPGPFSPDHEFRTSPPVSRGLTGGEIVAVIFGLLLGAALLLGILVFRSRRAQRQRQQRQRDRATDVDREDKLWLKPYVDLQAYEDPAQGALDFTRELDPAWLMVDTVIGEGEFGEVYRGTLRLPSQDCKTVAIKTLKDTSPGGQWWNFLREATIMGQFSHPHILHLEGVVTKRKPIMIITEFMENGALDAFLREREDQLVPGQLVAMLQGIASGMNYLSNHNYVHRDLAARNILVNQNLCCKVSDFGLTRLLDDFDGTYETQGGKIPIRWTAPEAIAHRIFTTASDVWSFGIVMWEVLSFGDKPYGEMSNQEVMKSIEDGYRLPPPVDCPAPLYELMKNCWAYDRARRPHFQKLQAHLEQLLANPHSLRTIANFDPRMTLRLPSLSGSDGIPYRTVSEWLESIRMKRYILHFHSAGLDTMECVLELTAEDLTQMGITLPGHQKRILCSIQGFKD
In outline: as §1

The target of another experiment is T3, CHK1(h) (Homo sapiens, UniProt O14757).
T3 sequence (O14757 1-476): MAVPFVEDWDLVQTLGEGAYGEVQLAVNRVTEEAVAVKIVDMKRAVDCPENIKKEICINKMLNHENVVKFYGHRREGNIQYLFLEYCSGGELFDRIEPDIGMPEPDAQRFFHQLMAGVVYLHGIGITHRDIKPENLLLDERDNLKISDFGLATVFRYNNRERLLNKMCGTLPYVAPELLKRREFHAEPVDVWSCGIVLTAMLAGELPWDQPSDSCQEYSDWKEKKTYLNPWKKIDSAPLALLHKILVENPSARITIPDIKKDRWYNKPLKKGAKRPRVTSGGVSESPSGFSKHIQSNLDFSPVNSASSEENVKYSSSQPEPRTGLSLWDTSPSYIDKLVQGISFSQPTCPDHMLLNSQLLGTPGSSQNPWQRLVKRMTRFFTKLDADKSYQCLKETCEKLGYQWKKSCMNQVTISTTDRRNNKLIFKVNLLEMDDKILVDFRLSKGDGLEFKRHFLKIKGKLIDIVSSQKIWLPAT
In outline: as §1

Experimental findings from patent US10562947B2, “Compositions and methods for preventing or treating diseases, conditions or processes characterized by aberrant fibroblast proliferation and extracellular matrix deposition” (MOERAE MATRIX, INC., priority 2011, dated 2020) are described below.

PASK(h), sequence (Q96RG2 whole entry): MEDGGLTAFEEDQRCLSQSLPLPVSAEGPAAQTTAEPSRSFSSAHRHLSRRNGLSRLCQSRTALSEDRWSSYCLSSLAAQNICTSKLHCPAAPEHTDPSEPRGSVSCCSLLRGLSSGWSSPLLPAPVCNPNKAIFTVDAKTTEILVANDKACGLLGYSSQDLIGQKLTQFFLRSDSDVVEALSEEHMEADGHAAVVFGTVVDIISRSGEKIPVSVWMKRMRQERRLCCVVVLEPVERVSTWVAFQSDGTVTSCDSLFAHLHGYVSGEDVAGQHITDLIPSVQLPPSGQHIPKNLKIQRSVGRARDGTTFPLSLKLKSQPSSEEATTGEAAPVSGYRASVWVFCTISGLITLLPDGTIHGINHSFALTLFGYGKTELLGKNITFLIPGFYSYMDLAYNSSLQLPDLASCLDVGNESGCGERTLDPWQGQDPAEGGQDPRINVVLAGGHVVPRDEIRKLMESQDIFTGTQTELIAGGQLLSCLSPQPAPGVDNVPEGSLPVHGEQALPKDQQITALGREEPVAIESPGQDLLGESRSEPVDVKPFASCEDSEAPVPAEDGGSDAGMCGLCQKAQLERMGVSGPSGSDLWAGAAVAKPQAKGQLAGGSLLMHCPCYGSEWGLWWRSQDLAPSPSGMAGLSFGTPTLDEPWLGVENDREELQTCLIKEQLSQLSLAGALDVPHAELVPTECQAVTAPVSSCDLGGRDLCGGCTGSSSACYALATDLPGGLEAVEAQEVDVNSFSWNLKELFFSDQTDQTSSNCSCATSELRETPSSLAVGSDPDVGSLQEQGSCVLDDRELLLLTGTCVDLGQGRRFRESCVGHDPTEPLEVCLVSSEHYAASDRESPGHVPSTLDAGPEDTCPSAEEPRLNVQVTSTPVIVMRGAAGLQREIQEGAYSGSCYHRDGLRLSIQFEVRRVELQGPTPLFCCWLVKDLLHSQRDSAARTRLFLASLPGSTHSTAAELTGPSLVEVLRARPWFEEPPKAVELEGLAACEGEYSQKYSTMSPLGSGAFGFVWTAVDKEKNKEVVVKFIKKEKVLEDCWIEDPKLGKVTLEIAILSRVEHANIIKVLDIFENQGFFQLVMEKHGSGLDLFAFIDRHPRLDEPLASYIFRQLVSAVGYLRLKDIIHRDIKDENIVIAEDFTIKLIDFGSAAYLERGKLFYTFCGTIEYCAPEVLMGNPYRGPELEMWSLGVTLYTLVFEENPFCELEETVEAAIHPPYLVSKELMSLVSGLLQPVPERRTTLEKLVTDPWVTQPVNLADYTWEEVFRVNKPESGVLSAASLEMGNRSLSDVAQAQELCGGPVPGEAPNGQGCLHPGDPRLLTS

On to “YARAAARQARAKALNRQLGVA (Mammalian) [MMI-0200]”, for which the “PASK(h) % activity” value in the experiment with PASK(h) came out at 60%. Besides, the “CaMKIV(h) % activity” value in the experiment with CaMKIV(h) was 71%.
Consider “HRRIKAWLKKIKALARQLGVAA (Mammalian) [MMI-0500]”, for which the “PASK(h) % activity” value with PASK(h) is recorded as 9%. Further, the “EphA1(h) % activity” value in the experiment with EphA1(h) is on record as 40%. Further, in the experiment with CHK1(h), the “CHK1(h) % activity” value was 65%. Moreover, the “CaMKIV(h) % activity” value with CaMKIV(h) is listed as −1%.
Regarding KAFAKLAARLYRKALARQLGVAA [MMI-0400], the “PASK(h) % activity” value in the experiment with PASK(h) came to 28%. Besides, in the experiment with EphA1(h), the “EphA1(h) % activity” value was 61%. In the experiment with CHK1(h), the “CHK1(h) % activity” value stood at 87%. The “CaMKIV(h) % activity” value with CaMKIV(h) is recorded as 18%.
On the same counts, the results for FAKLAARLYRKALARQLGVAA [MMI-0300] are 29%, 73%, 91% and 17%.
